For one assay, the target named is T1, ovalbumin (UniProt P01012 2-386).
T1 sequence (looked up): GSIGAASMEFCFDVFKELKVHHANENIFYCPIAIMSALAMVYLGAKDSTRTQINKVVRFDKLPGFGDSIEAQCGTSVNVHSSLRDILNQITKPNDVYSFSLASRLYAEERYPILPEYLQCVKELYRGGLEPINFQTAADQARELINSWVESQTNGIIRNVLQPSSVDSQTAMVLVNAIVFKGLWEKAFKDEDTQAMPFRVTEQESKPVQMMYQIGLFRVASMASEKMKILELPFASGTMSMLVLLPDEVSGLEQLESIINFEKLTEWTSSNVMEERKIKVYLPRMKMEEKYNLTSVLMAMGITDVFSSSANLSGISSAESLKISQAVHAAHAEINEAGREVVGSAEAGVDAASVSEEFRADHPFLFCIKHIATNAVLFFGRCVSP
Put plainly: SPR (Biacore 3000), VL over immobilized ovalbumin (about 2,200 RUs). On the procedure:
(§1) The KD of the VL against human serum albumin was determined by surface plasmon resonance as described for other domains above. Briefly, the binding of the VL to immobilized human serum albumin was determined by SPR using the BIACORE 3000 (GE Healthcare). Approximately 1,600 RUs of human serum albumin, 1,900 RUs of bovine serum albumin and 2,200 RUs of ovalbumin were immobilized on a research grade CMS sensor chip. An ethanolamine blocked surface was prepared, as a reference, in exactly the same manner as the protein surfaces. Immobilizations were carried out at concentrations of 20 μg/mL in 10 mM acetate buffer pH 4.5 using the amine coupling kit supplied by the manufacturer. The VL was passed through a Superdex 75 column (GE Healthcare) to eliminate any possible aggregates prior to Biacore analysis. For the binding studies, analyses were carried out at 25° C. in 10 mM HEPES, pH 7.4 containing 150 mM NaCl, 3 mM EDTA and 0.005% surfactant P20. The flow rates used were 40 μL/min and sample volumes were 60 μL. For regeneration the surface was washed for 10 min with the running buffer. Data were analyzed with BIAevaluation 4.1 software.

In another assay the target is bovine serum albumin (bovine, UniProt P02769 25-607). Put plainly: SPR (Biacore 3000), VL over immobilized bovine serum albumin (about 1,900 RUs). The method, then: as §1
Sequence of bovine serum albumin (P02769 25-607 limits assumed): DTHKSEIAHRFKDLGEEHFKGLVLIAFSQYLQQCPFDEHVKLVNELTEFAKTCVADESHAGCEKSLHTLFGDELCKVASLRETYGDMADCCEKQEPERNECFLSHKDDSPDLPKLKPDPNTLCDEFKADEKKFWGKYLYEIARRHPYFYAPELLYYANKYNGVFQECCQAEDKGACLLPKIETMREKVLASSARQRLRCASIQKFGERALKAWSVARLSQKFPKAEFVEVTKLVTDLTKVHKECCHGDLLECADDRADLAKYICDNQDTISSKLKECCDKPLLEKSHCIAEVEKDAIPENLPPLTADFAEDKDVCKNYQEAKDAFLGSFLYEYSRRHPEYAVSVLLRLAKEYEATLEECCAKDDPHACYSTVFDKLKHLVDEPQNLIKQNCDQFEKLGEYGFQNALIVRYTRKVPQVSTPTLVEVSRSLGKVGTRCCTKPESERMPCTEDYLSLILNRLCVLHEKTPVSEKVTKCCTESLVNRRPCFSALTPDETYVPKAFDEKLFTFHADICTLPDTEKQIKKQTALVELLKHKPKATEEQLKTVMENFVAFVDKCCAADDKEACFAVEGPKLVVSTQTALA
Background: SPR reads the build-up and loss of mass on a sensor chip optically.

The next assay addresses T2, human serum albumin (human, UniProt P02768 25-609).
T2 construct: also called HSA
Put plainly: SPR (Biacore 3000), VL over immobilized human serum albumin. The method, then: as §1

The target in assay [1] is T3, protein A (UniProt P38507 37-477).
T3 construct: Bought (Pierce); immobilized on CM5 chip by amine coupling; also called recombinant protein A
Put plainly: SPR (Biacore 3000), VH over immobilized protein A. On the procedure:
Immobilizations were carried out at 50 μg/mL in 10 mM acetate buffer, pH 4.5, using the amine coupling kit supplied by the manufacturer (GE Healthcare). All measurements were carried out at 25° C. in HBS-EP buffer at a flow rate of 50 μL/min. Surfaces were regenerated by washing with the running buffer.

Assay [2] deals with T3, protein A. Put plainly: SPR, KD of the mutant against KD of the wild-type VH on protein A.
Assay [3] concerns the target T3, protein A. Put plainly: SPR (Biacore 3000), VH over immobilized protein A; value in parentheses obtained with higher concentration of monomer (footnote d). On the procedure: For mutant VHs (HVHP44S, HVHB82S, HVHP421S, HVHP419S, HVHP430S, HVHP429S, HVHM81S, HVHP428S, HVHP420S, HVHM41S, HVHP423S, HVHP413S, HVHP426S, and HVHP414S), approximately 1,170 RUs and 1,240 RUs of recombinant protein A and ovalbumin (reference protein), respectively, were immobilized on research grade sensor chip CMS. Immobilizations were carried out at 50 μg/mL in 10 mM acetate buffer (pH 4.5 for both protein A and ovalbumin) using the amine coupling kit supplied by the manufacturer. All measurements were carried out at 25° C. in HBS-EP buffer at a flow rate of 20 μL/min or 40 μL/min for HVHB82S, HVHP421S, HVHP429S, HVHM41S, HVHM81S, HVHP423S, HVHP413S, HVHP426S, and HVHP414S or HVHP44S, HVHP419S, HVHP430S, HVHP428S, and HVHP420S, respectively. The protein A binding property of the wild-type counterparts were determined previously (To et al 2005).

A further assay addresses T4, human lysozyme (human, UniProt P61626 19-148).
T4 construct: Bought; passed through Superdex 75 before SPR
T4 sequence (looked up): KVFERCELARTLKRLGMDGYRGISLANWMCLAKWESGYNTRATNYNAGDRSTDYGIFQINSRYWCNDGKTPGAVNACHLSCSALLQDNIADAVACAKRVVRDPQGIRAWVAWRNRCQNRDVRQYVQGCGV
Put plainly: phage ELISA, phage-displayed VL on immobilized human lysozyme. A general note: ELISA stands for enzyme-linked immunosorbent assay.

T2 sequence (P02768 25-609 limits assumed): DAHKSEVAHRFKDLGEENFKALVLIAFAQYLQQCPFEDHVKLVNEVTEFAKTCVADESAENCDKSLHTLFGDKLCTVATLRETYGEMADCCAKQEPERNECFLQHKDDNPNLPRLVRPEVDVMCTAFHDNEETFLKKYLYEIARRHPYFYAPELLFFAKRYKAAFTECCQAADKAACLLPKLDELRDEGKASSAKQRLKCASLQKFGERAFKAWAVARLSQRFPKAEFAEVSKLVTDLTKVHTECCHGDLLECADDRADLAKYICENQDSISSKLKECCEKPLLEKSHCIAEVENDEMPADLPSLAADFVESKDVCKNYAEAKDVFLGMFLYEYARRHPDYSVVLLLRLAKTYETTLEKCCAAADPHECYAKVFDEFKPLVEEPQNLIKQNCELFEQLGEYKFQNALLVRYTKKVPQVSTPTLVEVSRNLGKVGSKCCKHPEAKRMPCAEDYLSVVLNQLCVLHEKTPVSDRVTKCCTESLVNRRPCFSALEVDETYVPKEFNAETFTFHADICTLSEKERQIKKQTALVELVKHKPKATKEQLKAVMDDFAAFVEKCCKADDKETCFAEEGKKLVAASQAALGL

B1: HVLHSA1 (antibody, V domains shown)
VL: DIQMTQSPSSLSASVGDRVTITCRASQSISTYLNWYQQKPGKAPKLLCFGASRLNSGVPSRFSCSGSGTDFTLTISNLQPEDFATYYCRQLFPLPDRRTFGHGTKVTVL
notes: Anti-human serum albumin VL single-domain antibody from the HVLP324S library (Cys48/Cys64); also called anti-human serum albumin VL; not shown: C-terminal His6 tag
Regarding B1, the binding result in the assay with ovalbumin and with bovine serum albumin was “no binding” each time. The Kd – broadly, the constant that tells how readily two partners part at equilibrium – with human serum albumin turned out to be 800 nM.

B2: HVHM81S (antibody, V domains shown)
VH: EVQLVQSGGGLVQPGRSLRLSCAASGFTFDDYAMHWVRQAPGKGLEWVCGISGSGASTYYADSVKGRFTCSRDNSKNTLYLQMNSLRAGDTALYYCARQSITGPTGAFDVWGQGTMVTVSS
notes: Cys49/Cys69 (Kabat) mutant of HVHM81; VH single-domain antibody; tag not specified
As to B2, binding with protein A [1] was characterised by a dissociation constant (Kd) of 2100 nM. Also, the “fold reduction in protein A binding (increase in KD) against wild-type HVHM81” value with protein A [2] came out at 1.6 fold.

B3: HVHM41S (antibody, V domains shown)
VH: QVQLVQSGGGLVQPGRSLRLSCAASGFAFSSYAMSWVRQAPGKGLEWVCAISGGGDHTYYADSVKGRFTCSRDNSKNTLYLQMNSLRAEDTAVYYCAKEGMVRGVSSAPFDYWGQGTLVTVSS
notes: Cys49/Cys69 (Kabat) mutant of HVHM41; VH single-domain antibody; tag not specified
Take B3: the Kd was found to be 1500 nM with protein A [1] and 1800 nM in the assay with protein A [3].

B4: HVLHLFL (antibody, V domains shown)
VL: DIQMTQSPSSLSASVGDRVTITCLASQSIFLYLDWYQQKPGKAPKLLCFFASTLESGVPSRFSCSGSGTDFTLTISNLQPEDFATYYCQQSYSTPRTFGHGTKVTVL
notes: Anti-human lysozyme VL from the HVLP324S library; KD not determined
Turning to B4, the binding result with human lysozyme is recorded as “binds”.

B5: HVHPC235S (antibody, V domains shown)
VH: QVQLVESGGGLIKPGGSLRLSCAASGFSVISESMTWVRQAPGKGLEWVCAISSSGGSTYYADSVKGRFTCSRDNSKNTVHLQMNSLRAEDTAVYYCAAKKIDGARYDYWGQGTMVTVSS
notes: Cys49/Cys69 (Kabat) mutant of HVHPC235; VH single-domain antibody; tag not specified; also called HVHAmC235S; HVHP235S
As to B5, the Kd in the assay with protein A [1] worked out at 3000 nM. In addition, the “fold reduction in protein A binding (increase in KD) against wild-type HVHPC235” value with protein A [2] stood at 10 fold.

The values above are taken from patent publication US20170044238A1 (NATIONAL RESEARCH COUNCIL OF CANADA, published 2017).
